In article PMC5750471:

B1: TREM2 (triggering receptor expressed on myeloid cells 2) with a Myc-tag at the C terminus, wild type [human] / presenilin 1 (PS1), wild type [not stated] (parent)
chain 1: HNTTVFQGVAGQSLQVSCPYDSMKHWGRRKAWCRQLGEKGPCQRVVSTHNLWLLSFLRRWNGSTAITDDTLGGTLTITLRNLQPHDAGLYQCQSLHGSEADTLRKVLVEVLADPLDHRDAGDLWFPGESESFEDAHVEHSISRSLLEGEIPFPPTSILLLLACIFLIKILAASALWAAAWHGQKPGTHPPSELDCGHDPGYQLQTLPGLRDT
chain 2: not shown

Variants of: B1
Test: co-immunoprecipitation with PS1 antibody Ab14, immunoblot band quantification
Settings: with presenilin 1 (PS1), HEK293 cells stably expressing Myc-tagged TREM2, transfected with PS1, n=3, read off a plot

ratio to parent (arbitrary unit)	Variant
0.68	chain 1 T48M
1.2	chain 1 T78K
1.2	chain 1 R29H
